In one assay the target is HLA-C*14:02. Put plainly: IEDB peptide-MHC binding, purified MHC/direct/fluorescence; filed as Kd, often an IC50 or EC50 that approximates it; ≥ and ≤ were set here for values at or beyond the usual limits of such assays.
Another assay deals with HLA-A*24:02. In words: IEDB peptide-MHC binding, purified MHC/competitive/fluorescence; filed as Kd, often an IC50 or EC50 that approximates it; ≥ and ≤ were set here for values at or beyond the usual limits of such assays.
Another assay has as its target HLA-B*40:01. Put plainly: IEDB peptide-MHC binding, purified MHC/direct/fluorescence; filed as Kd, often an IC50 or EC50 that approximates it; ≥ and ≤ were set here for values at or beyond the usual limits of such assays. The settings on record: source organism: Mycobacterium tuberculosis.
Assay [1] addresses HLA-B*46:01. Described as above. Conditions: source organism: Mycobacterium tuberculosis.
For assay [2], the target named is HLA-B*15:17. Described as above. The settings on record: source organism: Mycobacterium tuberculosis.
Assay [3] has as its target HLA-B*51:01. Described as above. The settings on record: source organism: Mycobacterium tuberculosis.
Another assay addresses HLA-B*08:01. The assay is described as above. The settings on record: source organism: Mycobacterium tuberculosis str. Haarlem.
Assay [4] deals with HLA-B*15:01. The assay is described as above. The settings on record: source organism: Mycobacterium tuberculosis.
Assay [5] has as its target HLA-A*69:01. The description is as above. Conditions: source organism: Mycobacterium tuberculosis.
A further assay has as its target HLA-B*58:01. Described as above. Conditions: source organism: Mycobacterium tuberculosis.
The target of the next assay is HLA-B*48:01. Described as above. The settings on record: source organism: Mycobacterium tuberculosis.
The next assay addresses HLA-B*27:05. The assay is described as above. Conditions: source organism: Mycobacterium tuberculosis.
A further assay has as its target HLA-A*01:01. The assay is described as above. The settings on record: source organism: Mycobacterium tuberculosis.
Assay [6] addresses HLA-B*18:01. The description is as above. The settings on record: source organism: Mycobacterium tuberculosis.
For assay [7], the target named is HLA-B*57:01. Described as above. The settings on record: source organism: Mycobacterium tuberculosis.
Assay [8] deals with HLA-A*02:01. Described as above. Conditions: source organism: Mycobacterium tuberculosis.
Another assay addresses HLA-B*39:01. In words: IEDB peptide-MHC binding, purified MHC/competitive/fluorescence; filed as Kd, often an IC50 or EC50 that approximates it; ≥ and ≤ were set here for values at or beyond the usual limits of such assays.
The next assay deals with HLA-A*31:01. The assay is described as above. The settings on record: source organism: Mycobacterium leprae.
The target of another assay is HLA-A*11:01. The description is as above. Conditions: source organism: Mycobacterium leprae.
A further assay concerns the target HLA-A*03:01. Described as above.
Another assay deals with HLA-B*15:09. The assay is described as above. Conditions: source organism: Mycobacterium leprae.
A further assay concerns the target HLA-C*06:02. In words: IEDB peptide-MHC binding, purified MHC/direct/fluorescence; filed as Kd, often an IC50 or EC50 that approximates it; ≥ and ≤ were set here for values at or beyond the usual limits of such assays. The settings on record: source organism: Cryptosporidium parvum Iowa II.
A further assay has as its target HLA-C*15:02. The description is as above. Conditions: source organism: Cryptosporidium parvum Iowa II.
The next assay addresses HLA-A*23:01. In words: IEDB peptide-MHC binding, purified MHC/competitive/fluorescence; filed as Kd, often an IC50 or EC50 that approximates it; ≥ and ≤ were set here for values at or beyond the usual limits of such assays.
Another assay deals with HLA-A*29:02. The assay is described as above. Conditions: source organism: Vibrio vulnificus.
Assay [9] addresses HLA-B*46:01. Described as above. Conditions: source organism: Vibrio vulnificus.
In a further assay the target is HLA-A*02:19. The assay is described as above. Conditions: source organism: Vibrio vulnificus.
Assay [10] concerns the target HLA-B*15:17. Described as above. Conditions: source organism: Vibrio vulnificus.
Assay [11] concerns the target HLA-B*51:01. Described as above. Conditions: source organism: Vibrio vulnificus.
The target in assay [12] is HLA-B*15:01. The assay is described as above. The settings on record: source organism: Vibrio vulnificus.
For the next assay, the target named is HLA-A*68:02. The assay is described as above. Conditions: source organism: Vibrio vulnificus.
Another assay deals with HLA-A*02:16. The description is as above. The settings on record: source organism: Vibrio vulnificus.
Assay [13] has as its target HLA-A*69:01. Described as above. The settings on record: source organism: Vibrio vulnificus.
A further assay addresses HLA-A*24:03. The description is as above. The settings on record: source organism: Vibrio vulnificus.
The target of a further assay is HLA-A*02:11. Described as above. Conditions: source organism: Vibrio vulnificus.
A further assay deals with HLA-A*26:01. The assay is described as above. Conditions: source organism: Vibrio vulnificus.
A further assay addresses HLA-B*27:03. The assay is described as above. Conditions: source organism: Vibrio vulnificus.
Another assay has as its target HLA-A*02:12. The description is as above. Conditions: source organism: Vibrio vulnificus.
In the next assay the target is HLA-A*02:03. Described as above. Conditions: source organism: Vibrio vulnificus.
Assay [14] deals with HLA-B*18:01. Described as above. Conditions: source organism: Vibrio vulnificus.
Assay [15] addresses HLA-B*57:01. The assay is described as above. The settings on record: source organism: Vibrio vulnificus.
In assay [16] the target is HLA-A*02:01. Described as above. Conditions: source organism: Vibrio vulnificus.
The mark [17] stands for this setting: source organism: Bacillus thuringiensis serovar tochigiensis BGSC 4Y1.
The mark [18] stands for this setting: source organism: Mycobacterium leprae.
The mark [19] stands for this setting: source organism: Cryptosporidium parvum Iowa II.
[20] abbreviates: source organism: Vibrio vulnificus.

Where only a bound is given, the exact number is not on record here.

Consider KYAKFFQNF, for which the equilibrium dissociation constant (Kd) with HLA-C*14:02 (setting [17]) is 0.428 µM; with HLA-A*24:02 (setting [17]), ≤ 0.0001 µM.
For YPACEAIGL, the Kd with HLA-B*40:01, with HLA-B*46:01 [1], in the assay with HLA-B*15:17 [2], with HLA-B*51:01 [3], with HLA-B*08:01 and in the assay with HLA-B*15:01 [4] was ≥ 20 µM throughout. Also, the Kd in the assay with HLA-A*69:01 [5] was 0.0905 µM; in the assay with HLA-B*58:01, ≥ 20 µM; with HLA-B*48:01 it was ≥ 20 µM; with HLA-B*27:05, ≥ 20 µM; with HLA-A*01:01 it was ≥ 20 µM; with HLA-B*18:01 [6], 0.166 µM. Also, the Kd with HLA-B*57:01 [7] is ≥ 20 µM; with HLA-A*02:01 [8], ≥ 20 µM; with HLA-B*39:01 (setting [18]), 0.031 µM; with HLA-A*31:01, ≥ 20 µM; with HLA-A*11:01 it was 0.854 µM; with HLA-A*03:01 (setting [18]) it was ≥ 20 µM. This sequence also came in with a Kd with HLA-B*15:09 of 0.526 µM.
IYAAISYMI: in the assay with HLA-A*24:02 (source organism: Salmonella enterica subsp. enterica serovar Typhi), the Kd is ≤ 0.0001 µM.
As to SFLHWFHHL, the Kd was 0.111 µM with HLA-C*14:02 (setting [19]), ≥ 20 µM with HLA-C*06:02, ≥ 20 µM with HLA-C*15:02 and ≤ 0.0001 µM in the assay with HLA-A*23:01 (setting [19]).
SFYKNLIW displayed a Kd with HLA-A*24:02 (source organism: Influenza A virus (A/swine/Korea/Hongsong2/2004(H1N2))) of 0.138 µM.
On to DEWECTRDD, for which the Kd with HLA-B*39:01 (setting [20]), in the assay with HLA-A*29:02, in the assay with HLA-B*46:01 [9], with HLA-A*02:19, in the assay with HLA-B*15:17 [10] and with HLA-B*51:01 [11] was ≥ 20 µM throughout. Also, the Kd in the assay with HLA-B*15:01 [12], with HLA-A*23:01 (setting [20]), with HLA-A*68:02, with HLA-A*02:16, with HLA-A*69:01 [13] and with HLA-A*24:03 was ≥ 20 µM in each case. For the same sequence, the Kd with HLA-A*02:11, with HLA-A*26:01, with HLA-B*27:03, with HLA-A*02:12, with HLA-A*03:01 (setting [20]) and in the assay with HLA-A*02:03 was ≥ 20 µM throughout. The Kd in the assay with HLA-B*18:01 [14] was 0.0594 µM; with HLA-B*57:01 [15], ≥ 20 µM; with HLA-A*02:01 [16], ≥ 20 µM.

(Values after the Immune Epitope Database (IEDB).)
